The source of these data is patent US20100196361A1, “Method of inhibition of vascular development using an antibody” (DYAX CORP., priority 2003, published 2010).

Read-outs that look alike come from different tables or passages of the source.

For data set [1], the system named is bFGF-induced angiogenesis. The data set can be described thus: […] plug assay in vivo. On the set-up: species or system mouse. As for the experimental part:
The germlined variant of the E3 IgG antibody was evaluated in an in vivo assay for angiogenesis induced by bFGF in […]™ plugs. Growth factor reduced […]™ (BD Biosciences, catalog #354230) was supplemented with 80 ng/ml of bFGF (R&D Systems, catalog #234-FSE). The A2-SV or an IgG4 E3 antibody (10 μg/ml) or PBS was injected subcutaneously into the abdominal area of NMRI nu/nu mice (150 μl of Matrigel/plug).
In the first assay, two mice were injected with […]™ supplemented with bFGF and soluble VEGFR-1 (10 μg/ml) as a positive control for an angiogenic inhibitor. At day 7 post-implantation mice were anesthetized and perfused through heart with 4% paraformaldehyde (PFA) in phosphate buffered saline (PBS). […]™ plugs and a piece of liver were removed and embedded in paraffin. Sections were cut and stained with hematoxylin and eosin (H&E).
In a second assay, mice were treated as described above, and then anesthetized eight days post-implantation and injected with fluorescein-conjugated tomato (lycopersicon esculentum) lectin (100 μg in 200 μl of PBS; Vector, catalog #FL-1171) into the tail vein. After five min circulation the animals were perfused through the heart with 10 ml of PBS followed by 10 ml of 4% PFA in PBS. […]™ plugs and pieces of kidney and liver were removed and frozen in OCT (Tissue-Tek). Nuclei were visualized on sections by using […]® mounting medium containing DAPI (Vector) and analyzed under fluorescence microscopy.
To assess further the potential anti-angiogenic activity of the E3 antibody, a third assay examining the effect of DX-2210 (E3 antibody with germlined light chain) on bFGF-induced endothelial cell tube formation in […]™ plugs was performed. […] In order to quantitate the amount of blood vessels in the […]™ plugs, sections were cut and either stained for endothelial cell content using an anti-CD-31 antibody or analyzed under fluorescence microscopy to assess the amount of functional blood vessels (tomato lectin staining) (data not shown). In addition, the amount of blood vessels per unit area was quantitated.

In a further data set the test system is platelets. The data set is described as follows: Platelet agglutination and aggregation. It is filed as cell-based. The text has this:
It has been reported that Tie1 is expressed on platelets ([…] et al. (2000) J. Vasc. Res. 37(6):437). The possibility of platelet immunoreactivity with the E3 anti-Tie1 antibody was investigated by FACs analysis and immunoprecipitation studies. […] In addition, the effect of DX-2200 and DX-2210 on platelet agglutination and aggregation was investigated. Ristocetin, a cofactor that induces platelet agglutination by mediating the binding of von Willebrand factor (vWF) to platelet membrane glycoprotein GPIb (CD42), was used as a positive control for platelet agglutination.

Another data set concerns the target T1, mouse Tie1 Fc (Mus musculus, UniProt Q06806).
T1 construct: both dimeric (Tie1-Fc fusion protein) and monomeric (Tie1-HIS) versions of the extracellular domain of the Tie1 were used
T1 sequence (Q06806 23-755 limits assumed): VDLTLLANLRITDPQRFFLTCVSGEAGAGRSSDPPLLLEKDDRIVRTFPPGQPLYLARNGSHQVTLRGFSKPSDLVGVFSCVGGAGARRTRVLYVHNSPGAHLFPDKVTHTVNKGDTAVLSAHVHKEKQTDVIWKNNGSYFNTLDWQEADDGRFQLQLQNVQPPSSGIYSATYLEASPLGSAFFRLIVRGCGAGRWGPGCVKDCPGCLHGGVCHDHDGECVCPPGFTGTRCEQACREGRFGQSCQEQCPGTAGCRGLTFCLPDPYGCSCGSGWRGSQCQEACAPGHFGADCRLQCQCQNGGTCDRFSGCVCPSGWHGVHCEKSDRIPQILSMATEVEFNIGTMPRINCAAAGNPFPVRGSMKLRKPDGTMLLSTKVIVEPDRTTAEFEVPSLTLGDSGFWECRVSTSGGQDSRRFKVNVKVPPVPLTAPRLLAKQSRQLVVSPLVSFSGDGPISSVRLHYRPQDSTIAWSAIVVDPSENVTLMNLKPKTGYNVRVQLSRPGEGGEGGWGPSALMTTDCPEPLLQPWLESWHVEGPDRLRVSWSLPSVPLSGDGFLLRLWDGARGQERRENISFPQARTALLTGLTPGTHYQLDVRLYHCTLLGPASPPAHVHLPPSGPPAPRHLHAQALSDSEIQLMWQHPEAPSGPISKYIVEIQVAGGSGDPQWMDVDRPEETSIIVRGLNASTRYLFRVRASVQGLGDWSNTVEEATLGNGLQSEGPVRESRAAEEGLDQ
The data set is described as follows: BIAcore, Fab over biotinylated mouse Tie1-Fc on streptavidin chip. As to conditions: Fab analyte; for kon: 740 RU. It is filed as binding. On the procedure:
Mouse Tie 1-Fc antigen (0.5 mg/ml stock) was biotinylated using established procedures and after dilution 1/100 fold in HBS this was then used for capturing to a streptavidin chip. This was coated to a resonance value of 740RU. All analysis was performed in HBS buffer. The parental Fab E3 0.587 mg/ml (11740 nM) was diluted 1/587 in HBS+BSA to obtain a stock of 20 nM and the germlined Fab E3 0.025 mg/ml (500 nM) was diluted 1/25 in HBS+BSA to obtain a stock of 20 nM. Serial dilutions were made of each Fab preparation to obtain 10 nM, 5 nM, 2.5 nM, and 1.25 nM. For the association phase samples were injected at 30 μl/min for 4 minutes using kinject program. This was followed by a 10 minutes dissociation phase, any remaining sample was stripped from the Tie1 Fc surface at a flow of 50 μl/min with a single injection of 50 mM NaOH+1 M NaCl for 18 seconds. All samples were run and analyzed in duplicate.
Sensorgrams were analyzed using the simultaneous ka/kd fitting program with 1:1 model in the BIAEVALUATION™ software 3.1.

B1: E3: human anti-Tie1 antibody from phage Fab library, reformatted as IgG; HC variable SEQ ID NO:114, LC variable SEQ ID NO:116 (antibody, V domains shown)
VH: EVQLLESGGGLVQPGGSLRLSCAASGFTFSMYGMVWVRQAPGKGLEWVSVISPSGGNTGYADSVKGRFTISRDNSKNTLYLQVNSLRAEDTAVYYCARAPRGYSYGYYYWGQGTLVTVSSASTKGPSVFPLAPSSKSTSGG
VL: DIQMTQSPLSLSASVGDRVTITCRASQGIGHYLAWYQQKPGKVPKLLIYTASTLQSGVPSRFSGSGSGTDFTLTINSLQPEDVATYYCQQFNSYPHTFGQGTRLDIK
modifications: IgG constant regions; Synthetically generated peptide
For the molecule B1, the “fluorescein-lectin staining of MATRIGEL plugs” value in data set [1] (bFGF, antibody in plug, eight days post-implantation) is “no staining could be detected”. Also, the “induction of platelet agglutination or aggregation” value with platelets (ristocetin and anti-CD9 as positive controls) is given as “Neither the DX-2200 nor its light chain germlined variant DX-2210 induced platelet agglutination or aggregation”.

B2: DX-2210: E3 antibody in which the light chain has been germlined (antibody, V domains shown)
VH: EVQLLESGGGLVQPGGSLRLSCAASGFTFSMYGMVWVRQAPGKGLEWVSVISPSGGNTGYADSVKGRFTISRDNSKNTLYLQVNSLRAEDTAVYYCARAPRGYSYGYYYWGQGTLVTVSSASTKGPSVFPLAPSSKSTSGG
VL: DIQMTQSPSSLSASVGDRVTITCRASQGIGHYLAWYQQKPGKVPKLLIYTASTLQSGVPSRFSGSGSGTDFTLTISSLQPEDVATYYCQQFNSYPHTFGQGTRLEIK
For the molecule B2, the “inhibition of bFGF-induced angiogenesis (blood vessels per unit area)” value in data set [1] (MATRIGEL with HUVECs and bFGF, Balb/c nu/nu mice, day 8) is listed as 70%. For the same molecule, the “H&E staining of MATRIGEL plugs” value in data set [1] (bFGF 80 ng/ml, antibody 10 μg/ml in plug, NMRI nu/nu mice, day 7) is reported as “neither modification of the matrix nor organization of the cells observed”. For the same molecule, the “induction of platelet agglutination or aggregation” value with platelets was “Neither the DX-2200 nor its light chain germlined variant DX-2210 induced platelet agglutination or aggregation”.

B3: parental E3 Fab: soluble Fab fragment of the parental E3 anti-Tie1 antibody (antibody, V domains shown)
VH: EVQLLESGGGLVQPGGSLRLSCAASGFTFSMYGMVWVRQAPGKGLEWVSVISPSGGNTGYADSVKGRFTISRDNSKNTLYLQVNSLRAEDTAVYYCARAPRGYSYGYYYWGQGTLVTVSSASTKGPSVFPLAPSSKSTSGG
VL: DIQMTQSPLSLSASVGDRVTITCRASQGIGHYLAWYQQKPGKVPKLLIYTASTLQSGVPSRFSGSGSGTDFTLTINSLQPEDVATYYCQQFNSYPHTFGQGTRLDIK
On to B3, for which, in the data set with mouse Tie1 Fc, the “koff” value came out at 0.00095 s⁻¹ and the “kon” value stood at 246000 M⁻¹ s⁻¹.

B4: germlined E3 Fab: soluble Fab of E3 with LC framework regions germlined to DPK4; LC variable SEQ ID NO:159 (antibody, V domains shown)
VH: EVQLLESGGGLVQPGGSLRLSCAASGFTFSMYGMVWVRQAPGKGLEWVSVISPSGGNTGYADSVKGRFTISRDNSKNTLYLQVNSLRAEDTAVYYCARAPRGYSYGYYYWGQGTLVTVSSASTKGPSVFPLAPSSKSTSGG
VL: DIQMTQSPSSLSASVGDRVTITCRASQGIGHYLAWYQQKPGKVPKLLIYTASTLQSGVPSRFSGSGSGTDFTLTISSLQPEDVATYYCQQFNSYPHTFGQGTRLEIK
For B4, in the data set with mouse Tie1 Fc, the “koff” value amounted to 0.00104 s⁻¹ and the “kon” value was found to be 340000 M⁻¹ s⁻¹.
